Source: US20250197482A1 (UNITED STATES OF AMERICA AS REPRESENTED BY THE SECRETARY …, published 2025)

B1: CAP256V2LS-10E8-6 (bispecific antibody)
heavy chain: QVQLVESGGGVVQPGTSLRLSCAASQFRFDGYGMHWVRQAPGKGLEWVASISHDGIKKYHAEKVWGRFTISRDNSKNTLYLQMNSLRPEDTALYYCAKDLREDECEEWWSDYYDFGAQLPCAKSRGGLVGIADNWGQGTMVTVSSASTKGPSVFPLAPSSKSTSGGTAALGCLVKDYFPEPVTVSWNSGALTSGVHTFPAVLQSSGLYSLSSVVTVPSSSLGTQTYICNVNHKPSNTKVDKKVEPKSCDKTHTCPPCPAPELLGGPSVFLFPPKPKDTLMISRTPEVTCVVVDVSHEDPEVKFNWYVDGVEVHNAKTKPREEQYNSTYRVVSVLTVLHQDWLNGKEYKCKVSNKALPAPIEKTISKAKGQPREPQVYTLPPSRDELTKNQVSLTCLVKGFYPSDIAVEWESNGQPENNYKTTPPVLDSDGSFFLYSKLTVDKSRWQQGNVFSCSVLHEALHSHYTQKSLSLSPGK
light chain (10E8v4 scFv, linker, CAP256V2LS LC): EVRLVESGGGLVKPGGSLRLSCSASGFDFDNAWMTWVRQPPGKGLEWVGRITGPGEGWSVDYAESVKGRFTISRDNTKNTLYLEMNNVRTEDTGYYFCARTGKYYDFWSGYPPGEEYFQDWGQGTLVIVSSGGGGSGGGGSGGGGSSELTQDPAVSVALKQTVTITCRGDSLRSHYASWYQKKPGQAPVLLFYGKNNRPSGIPDRFSGSASGNRASLTITGAQAEDEADYYCSSRDKSGSRLSVFGGGTKLTVDKTHTGDKTHTGDKTHTQSVLTQPPSVSAAPGQKVTISCSGNTSNIGNNFVSWYQQRPGRAPQLLIYETDKRPSGIPDRFSASKSGTSGTLAITGLQTGDEADYYCATWAASLSSARVFGTGTQVIVLGQPKVNPTVTLFPPSSEELQANKATLVCLISDFYPGAVTVAWKADSSPVKAGVETTTPSKQSNNKYAASSYLSLTPEQWKSHRSYSCQVTHEGSTVEKTVAPTECS
B2: CAP256V2LS-J3-1 (bispecific antibody)
heavy chain: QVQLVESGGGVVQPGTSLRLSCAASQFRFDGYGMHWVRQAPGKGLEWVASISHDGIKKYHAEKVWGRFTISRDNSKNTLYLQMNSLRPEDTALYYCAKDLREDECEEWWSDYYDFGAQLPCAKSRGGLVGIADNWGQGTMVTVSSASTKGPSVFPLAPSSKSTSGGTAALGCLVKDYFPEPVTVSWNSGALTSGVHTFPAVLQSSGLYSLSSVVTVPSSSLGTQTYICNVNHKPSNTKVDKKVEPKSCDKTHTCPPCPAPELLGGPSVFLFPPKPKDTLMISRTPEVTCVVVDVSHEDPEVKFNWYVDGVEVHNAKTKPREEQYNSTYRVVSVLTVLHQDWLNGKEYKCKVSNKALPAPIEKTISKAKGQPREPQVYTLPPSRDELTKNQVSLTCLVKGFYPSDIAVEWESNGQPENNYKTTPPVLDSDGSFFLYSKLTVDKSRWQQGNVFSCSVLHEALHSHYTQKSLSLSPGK
light chain (J3 VHH, linker, CAP256V2LS LC): EVQLVESGGGLVQAGGFLRLSCELRGSIFNQYAMAWFRQAPGKEREFVAGMGAVPHYGEFVKGRFTISRDNAKSTVYLQMSSLKPEDTAIYFCARSKSTYISYNSNGYDYWGRGTQVTVSSGGSGGQSVLTQPPSVSAAPGQKVTISCSGNTSNIGNNFVSWYQQRPGRAPQLLIYETDKRPSGIPDRFSASKSGTSGTLAITGLQTGDEADYYCATWAASLSSARVFGTGTQVIVLGQPKVNPTVTLFPPSSEELQANKATLVCLISDFYPGAVTVAWKADSSPVKAGVETTTPSKQSNNKYAASSYLSLTPEQWKSHRSYSCQVTHEGSTVEKTVAPTECS
B3: CAP256V2LS-J3-4 (bispecific antibody)
heavy chain: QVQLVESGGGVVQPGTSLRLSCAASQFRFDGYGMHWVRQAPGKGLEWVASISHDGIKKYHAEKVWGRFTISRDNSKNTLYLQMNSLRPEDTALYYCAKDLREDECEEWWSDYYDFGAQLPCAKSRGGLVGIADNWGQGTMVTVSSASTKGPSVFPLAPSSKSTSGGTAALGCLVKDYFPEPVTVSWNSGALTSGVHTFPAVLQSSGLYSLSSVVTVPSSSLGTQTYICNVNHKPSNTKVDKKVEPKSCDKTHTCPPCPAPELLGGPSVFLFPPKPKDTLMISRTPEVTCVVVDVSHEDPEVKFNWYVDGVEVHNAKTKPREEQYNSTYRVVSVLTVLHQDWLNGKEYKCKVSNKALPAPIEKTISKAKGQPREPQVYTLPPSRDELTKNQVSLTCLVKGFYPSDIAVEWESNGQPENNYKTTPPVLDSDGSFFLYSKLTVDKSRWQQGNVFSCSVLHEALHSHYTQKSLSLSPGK
light chain (J3 VHH, linker, CAP256V2LS LC): EVQLVESGGGLVQAGGFLRLSCELRGSIFNQYAMAWFRQAPGKEREFVAGMGAVPHYGEFVKGRFTISRDNAKSTVYLQMSSLKPEDTAIYFCARSKSTYISYNSNGYDYWGRGTQVTVSSDKTHTQSVLTQPPSVSAAPGQKVTISCSGNTSNIGNNFVSWYQQRPGRAPQLLIYETDKRPSGIPDRFSASKSGTSGTLAITGLQTGDEADYYCATWAASLSSARVFGTGTQVIVLGQPKVNPTVTLFPPSSEELQANKATLVCLISDFYPGAVTVAWKADSSPVKAGVETTTPSKQSNNKYAASSYLSLTPEQWKSHRSYSCQVTHEGSTVEKTVAPTECS
B4: CAP256V2LS-VRC01-3 (bispecific antibody)
heavy chain: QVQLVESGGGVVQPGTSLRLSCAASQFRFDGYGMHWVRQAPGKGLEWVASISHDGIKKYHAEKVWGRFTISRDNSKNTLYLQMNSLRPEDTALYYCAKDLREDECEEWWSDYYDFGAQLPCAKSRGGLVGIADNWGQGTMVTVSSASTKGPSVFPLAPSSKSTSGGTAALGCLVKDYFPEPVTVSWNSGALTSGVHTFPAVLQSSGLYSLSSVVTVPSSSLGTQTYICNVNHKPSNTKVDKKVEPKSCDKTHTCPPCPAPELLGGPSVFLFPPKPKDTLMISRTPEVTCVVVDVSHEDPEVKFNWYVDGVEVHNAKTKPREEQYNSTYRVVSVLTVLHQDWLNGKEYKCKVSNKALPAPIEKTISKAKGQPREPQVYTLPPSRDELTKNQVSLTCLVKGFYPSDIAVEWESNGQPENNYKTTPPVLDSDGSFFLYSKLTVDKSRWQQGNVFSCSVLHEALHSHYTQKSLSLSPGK
light chain (VRC01 scFv, linker, CAP256V2LS LC): QVQLVQSGGQMKKPGESMRISCRASGYEFIDCTLNWIRLAPGKRPEWMGWLKPRGGAVNYARPLQGRVTMTRDVYSDTAFLELRSLTVDDTAVYFCTRGKNCDYNWDFEHWGRGTPVIVSSGGGGSGGGGSGGGGSLTQSPGTLSLSPGETAIISCRTSQYGSLAWYQQRPGQAPRLVIYSGSTRAAGIPDRFSGSRWGPDYNLTISNLESGDFGVYYCQQYEFFGQGTKVQVGGSGGGGSGGGGSGGQSVLTQPPSVSAAPGQKVTISCSGNTSNIGNNFVSWYQQRPGRAPQLLIYETDKRPSGIPDRFSASKSGTSGTLAITGLQTGDEADYYCATWAASLSSARVFGTGTQVIVLGQPKVNPTVTLFPPSSEELQANKATLVCLISDFYPGAVTVAWKADSSPVKAGVETTTPSKQSNNKYAASSYLSLTPEQWKSHRSYSCQVTHEGSTVEKTVAPTECS
B5: CAP256V2LS-10E8-4 (bispecific antibody)
heavy chain: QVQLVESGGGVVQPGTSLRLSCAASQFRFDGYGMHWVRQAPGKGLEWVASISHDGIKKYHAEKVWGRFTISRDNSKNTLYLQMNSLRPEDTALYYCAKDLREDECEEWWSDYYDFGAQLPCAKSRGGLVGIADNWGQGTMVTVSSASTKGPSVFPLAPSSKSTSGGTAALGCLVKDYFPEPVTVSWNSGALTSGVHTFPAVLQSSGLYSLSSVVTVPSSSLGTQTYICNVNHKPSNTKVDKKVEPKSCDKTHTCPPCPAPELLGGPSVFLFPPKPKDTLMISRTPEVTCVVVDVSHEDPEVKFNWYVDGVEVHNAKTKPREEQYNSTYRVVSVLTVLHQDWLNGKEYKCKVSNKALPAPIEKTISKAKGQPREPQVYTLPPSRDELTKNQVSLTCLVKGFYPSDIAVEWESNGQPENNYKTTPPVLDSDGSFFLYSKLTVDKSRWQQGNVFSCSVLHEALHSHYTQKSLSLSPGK
light chain (10E8v4 scFv, linker, CAP256V2LS LC): EVRLVESGGGLVKPGGSLRLSCSASGFDFDNAWMTWVRQPPGKGLEWVGRITGPGEGWSVDYAESVKGRFTISRDNTKNTLYLEMNNVRTEDTGYYFCARTGKYYDFWSGYPPGEEYFQDWGQGTLVIVSSGGGGSGGGGSGGGGSSELTQDPAVSVALKQTVTITCRGDSLRSHYASWYQKKPGQAPVLLFYGKNNRPSGIPDRFSGSASGNRASLTITGAQAEDEADYYCSSRDKSGSRLSVFGGGTKLTVDKTHTQSVLTQPPSVSAAPGQKVTISCSGNTSNIGNNFVSWYQQRPGRAPQLLIYETDKRPSGIPDRFSASKSGTSGTLAITGLQTGDEADYYCATWAASLSSARVFGTGTQVIVLGQPKVNPTVTLFPPSSEELQANKATLVCLISDFYPGAVTVAWKADSSPVKAGVETTTPSKQSNNKYAASSYLSLTPEQWKSHRSYSCQVTHEGSTVEKTVAPTECS
B6: CAP256V2LS (antibody, V domains shown)
VH: QVQLVESGGGVVQPGTSLRLSCAASQFRFDGYGMHWVRQAPGKGLEWVASISHDGIKKYHAEKVWGRFTISRDNSKNTLYLQMNSLRPEDTALYYCAKDLREDECEEWWSDYYDFGAQLPCAKSRGGLVGIADNWGQGTMVTVSS
VL: QSVLTQPPSVSAAPGQKVTISCSGNTSNIGNNFVSWYQQRPGRAPQLLIYETDKRPSGIPDRFSASKSGTSGTLAITGLQTGDEADYYCATWAASLSSARVFGTGTQVIVLG
B7: CAP256V2LS-VRC01-2 (bispecific antibody)
heavy chain: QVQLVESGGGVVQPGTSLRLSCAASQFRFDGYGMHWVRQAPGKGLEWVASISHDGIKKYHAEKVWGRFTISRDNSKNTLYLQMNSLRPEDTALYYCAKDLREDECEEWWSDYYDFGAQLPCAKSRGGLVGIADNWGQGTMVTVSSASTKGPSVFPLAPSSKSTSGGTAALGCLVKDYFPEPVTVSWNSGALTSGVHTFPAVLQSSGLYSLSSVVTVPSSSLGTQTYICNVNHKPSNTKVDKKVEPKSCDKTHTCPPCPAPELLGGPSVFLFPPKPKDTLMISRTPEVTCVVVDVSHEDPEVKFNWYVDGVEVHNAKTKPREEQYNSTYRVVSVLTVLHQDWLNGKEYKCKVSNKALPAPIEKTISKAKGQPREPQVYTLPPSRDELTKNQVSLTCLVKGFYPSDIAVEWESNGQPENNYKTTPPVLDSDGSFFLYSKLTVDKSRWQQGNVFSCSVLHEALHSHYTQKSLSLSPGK
light chain (VRC01 scFv, linker, CAP256V2LS LC): QVQLVQSGGQMKKPGESMRISCRASGYEFIDCTLNWIRLAPGKRPEWMGWLKPRGGAVNYARPLQGRVTMTRDVYSDTAFLELRSLTVDDTAVYFCTRGKNCDYNWDFEHWGRGTPVIVSSGGGGSGGGGSGGGGSLTQSPGTLSLSPGETAIISCRTSQYGSLAWYQQRPGQAPRLVIYSGSTRAAGIPDRFSGSRWGPDYNLTISNLESGDFGVYYCQQYEFFGQGTKVQVGGSGGGGSGGQSVLTQPPSVSAAPGQKVTISCSGNTSNIGNNFVSWYQQRPGRAPQLLIYETDKRPSGIPDRFSASKSGTSGTLAITGLQTGDEADYYCATWAASLSSARVFGTGTQVIVLGQPKVNPTVTLFPPSSEELQANKATLVCLISDFYPGAVTVAWKADSSPVKAGVETTTPSKQSNNKYAASSYLSLTPEQWKSHRSYSCQVTHEGSTVEKTVAPTECS
B8: CAP256V2LS-VRC01-5 (bispecific antibody)
heavy chain: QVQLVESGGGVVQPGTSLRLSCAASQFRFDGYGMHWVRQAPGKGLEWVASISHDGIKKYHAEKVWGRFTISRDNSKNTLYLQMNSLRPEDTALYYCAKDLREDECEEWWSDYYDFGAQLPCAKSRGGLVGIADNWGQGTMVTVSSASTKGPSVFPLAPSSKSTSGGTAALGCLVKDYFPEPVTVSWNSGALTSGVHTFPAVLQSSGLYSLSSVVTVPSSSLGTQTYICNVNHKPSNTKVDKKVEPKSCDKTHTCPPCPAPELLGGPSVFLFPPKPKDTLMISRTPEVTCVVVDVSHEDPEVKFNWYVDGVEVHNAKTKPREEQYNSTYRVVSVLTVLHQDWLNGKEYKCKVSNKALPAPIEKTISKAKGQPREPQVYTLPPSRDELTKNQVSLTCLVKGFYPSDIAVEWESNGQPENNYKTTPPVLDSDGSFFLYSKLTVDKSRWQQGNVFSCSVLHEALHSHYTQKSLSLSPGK
light chain (VRC01 scFv, linker, CAP256V2LS LC): QVQLVQSGGQMKKPGESMRISCRASGYEFIDCTLNWIRLAPGKRPEWMGWLKPRGGAVNYARPLQGRVTMTRDVYSDTAFLELRSLTVDDTAVYFCTRGKNCDYNWDFEHWGRGTPVIVSSGGGGSGGGGSGGGGSLTQSPGTLSLSPGETAIISCRTSQYGSLAWYQQRPGQAPRLVIYSGSTRAAGIPDRFSGSRWGPDYNLTISNLESGDFGVYYCQQYEFFGQGTKVQVDKTHTDKTHTQSVLTQPPSVSAAPGQKVTISCSGNTSNIGNNFVSWYQQRPGRAPQLLIYETDKRPSGIPDRFSASKSGTSGTLAITGLQTGDEADYYCATWAASLSSARVFGTGTQVIVLGQPKVNPTVTLFPPSSEELQANKATLVCLISDFYPGAVTVAWKADSSPVKAGVETTTPSKQSNNKYAASSYLSLTPEQWKSHRSYSCQVTHEGSTVEKTVAPTECS
B9: CAP256V2LS-10E8-5 (bispecific antibody)
heavy chain: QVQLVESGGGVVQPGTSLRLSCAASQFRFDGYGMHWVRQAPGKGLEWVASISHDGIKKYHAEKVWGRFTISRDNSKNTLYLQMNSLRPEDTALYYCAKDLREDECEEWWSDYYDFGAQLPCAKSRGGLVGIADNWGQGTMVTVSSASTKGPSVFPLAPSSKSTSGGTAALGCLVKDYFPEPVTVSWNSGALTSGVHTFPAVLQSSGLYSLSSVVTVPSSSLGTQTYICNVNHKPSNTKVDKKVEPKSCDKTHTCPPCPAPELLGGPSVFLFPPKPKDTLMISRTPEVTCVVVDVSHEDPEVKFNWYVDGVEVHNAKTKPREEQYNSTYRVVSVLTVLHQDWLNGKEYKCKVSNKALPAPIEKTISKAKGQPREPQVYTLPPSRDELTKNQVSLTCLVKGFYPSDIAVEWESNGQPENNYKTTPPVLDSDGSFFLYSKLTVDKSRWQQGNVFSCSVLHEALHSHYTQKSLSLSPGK
light chain (10E8v4 scFv, linker, CAP256V2LS LC): EVRLVESGGGLVKPGGSLRLSCSASGFDFDNAWMTWVRQPPGKGLEWVGRITGPGEGWSVDYAESVKGRFTISRDNTKNTLYLEMNNVRTEDTGYYFCARTGKYYDFWSGYPPGEEYFQDWGQGTLVIVSSGGGGSGGGGSGGGGSSELTQDPAVSVALKQTVTITCRGDSLRSHYASWYQKKPGQAPVLLFYGKNNRPSGIPDRFSGSASGNRASLTITGAQAEDEADYYCSSRDKSGSRLSVFGGGTKLTVDKTHTGDKTHTQSVLTQPPSVSAAPGQKVTISCSGNTSNIGNNFVSWYQQRPGRAPQLLIYETDKRPSGIPDRFSASKSGTSGTLAITGLQTGDEADYYCATWAASLSSARVFGTGTQVIVLGQPKVNPTVTLFPPSSEELQANKATLVCLISDFYPGAVTVAWKADSSPVKAGVETTTPSKQSNNKYAASSYLSLTPEQWKSHRSYSCQVTHEGSTVEKTVAPTECS
B10: CAP256V2LS-VRC01-6 (bispecific antibody)
heavy chain: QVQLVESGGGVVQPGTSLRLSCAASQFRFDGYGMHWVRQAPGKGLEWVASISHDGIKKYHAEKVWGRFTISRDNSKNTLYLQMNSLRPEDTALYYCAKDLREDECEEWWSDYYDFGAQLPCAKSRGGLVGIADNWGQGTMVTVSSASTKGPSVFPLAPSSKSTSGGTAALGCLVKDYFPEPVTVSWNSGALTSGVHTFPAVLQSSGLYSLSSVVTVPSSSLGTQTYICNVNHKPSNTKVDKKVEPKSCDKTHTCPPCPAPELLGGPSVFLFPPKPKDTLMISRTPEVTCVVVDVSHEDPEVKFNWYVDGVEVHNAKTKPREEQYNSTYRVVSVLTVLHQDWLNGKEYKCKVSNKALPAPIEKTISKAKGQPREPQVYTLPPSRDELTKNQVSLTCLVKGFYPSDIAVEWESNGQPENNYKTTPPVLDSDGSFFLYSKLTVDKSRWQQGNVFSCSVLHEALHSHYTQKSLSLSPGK
light chain (VRC01 scFv, linker, CAP256V2LS LC): QVQLVQSGGQMKKPGESMRISCRASGYEFIDCTLNWIRLAPGKRPEWMGWLKPRGGAVNYARPLQGRVTMTRDVYSDTAFLELRSLTVDDTAVYFCTRGKNCDYNWDFEHWGRGTPVIVSSGGGGSGGGGSGGGGSLTQSPGTLSLSPGETAIISCRTSQYGSLAWYQQRPGQAPRLVIYSGSTRAAGIPDRFSGSRWGPDYNLTISNLESGDFGVYYCQQYEFFGQGTKVQVDKTHTDKTHTDKTHTQSVLTQPPSVSAAPGQKVTISCSGNTSNIGNNFVSWYQQRPGRAPQLLIYETDKRPSGIPDRFSASKSGTSGTLAITGLQTGDEADYYCATWAASLSSARVFGTGTQVIVLGQPKVNPTVTLFPPSSEELQANKATLVCLISDFYPGAVTVAWKADSSPVKAGVETTTPSKQSNNKYAASSYLSLTPEQWKSHRSYSCQVTHEGSTVEKTVAPTECS
B11: CAP256V2LS-VRC01-1 (bispecific antibody)
heavy chain: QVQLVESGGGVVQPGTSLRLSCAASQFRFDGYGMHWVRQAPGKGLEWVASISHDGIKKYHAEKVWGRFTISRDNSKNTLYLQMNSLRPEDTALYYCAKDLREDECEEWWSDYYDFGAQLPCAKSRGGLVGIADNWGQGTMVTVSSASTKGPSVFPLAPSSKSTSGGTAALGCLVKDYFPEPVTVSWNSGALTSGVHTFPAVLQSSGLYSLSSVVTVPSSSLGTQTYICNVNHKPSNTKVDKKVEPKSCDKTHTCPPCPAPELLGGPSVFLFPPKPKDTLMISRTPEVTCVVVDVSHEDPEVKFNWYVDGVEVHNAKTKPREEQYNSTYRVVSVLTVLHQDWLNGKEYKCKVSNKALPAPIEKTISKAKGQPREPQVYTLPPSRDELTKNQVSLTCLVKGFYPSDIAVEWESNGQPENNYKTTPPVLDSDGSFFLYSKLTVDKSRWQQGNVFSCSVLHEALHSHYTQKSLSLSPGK
light chain (VRC01 scFv, linker, CAP256V2LS LC): QVQLVQSGGQMKKPGESMRISCRASGYEFIDCTLNWIRLAPGKRPEWMGWLKPRGGAVNYARPLQGRVTMTRDVYSDTAFLELRSLTVDDTAVYFCTRGKNCDYNWDFEHWGRGTPVIVSSGGGGSGGGGSGGGGSLTQSPGTLSLSPGETAIISCRTSQYGSLAWYQQRPGQAPRLVIYSGSTRAAGIPDRFSGSRWGPDYNLTISNLESGDFGVYYCQQYEFFGQGTKVQVGGSGGQSVLTQPPSVSAAPGQKVTISCSGNTSNIGNNFVSWYQQRPGRAPQLLIYETDKRPSGIPDRFSASKSGTSGTLAITGLQTGDEADYYCATWAASLSSARVFGTGTQVIVLGQPKVNPTVTLFPPSSEELQANKATLVCLISDFYPGAVTVAWKADSSPVKAGVETTTPSKQSNNKYAASSYLSLTPEQWKSHRSYSCQVTHEGSTVEKTVAPTECS
B12: CAP256V2LS-VRC01-4 (bispecific antibody)
heavy chain: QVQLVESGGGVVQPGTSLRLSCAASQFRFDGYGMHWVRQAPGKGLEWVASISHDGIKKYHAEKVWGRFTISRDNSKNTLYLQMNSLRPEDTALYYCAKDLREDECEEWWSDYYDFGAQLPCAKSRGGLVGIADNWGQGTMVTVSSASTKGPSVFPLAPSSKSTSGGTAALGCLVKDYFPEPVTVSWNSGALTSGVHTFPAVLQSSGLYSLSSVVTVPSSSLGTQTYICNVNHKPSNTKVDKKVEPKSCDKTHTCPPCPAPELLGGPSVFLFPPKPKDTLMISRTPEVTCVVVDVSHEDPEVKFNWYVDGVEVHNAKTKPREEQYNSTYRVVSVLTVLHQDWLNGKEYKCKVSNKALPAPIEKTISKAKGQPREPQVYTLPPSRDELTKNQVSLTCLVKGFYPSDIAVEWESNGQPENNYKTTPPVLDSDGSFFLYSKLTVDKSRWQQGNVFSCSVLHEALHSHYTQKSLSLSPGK
light chain (VRC01 scFv, linker, CAP256V2LS LC): QVQLVQSGGQMKKPGESMRISCRASGYEFIDCTLNWIRLAPGKRPEWMGWLKPRGGAVNYARPLQGRVTMTRDVYSDTAFLELRSLTVDDTAVYFCTRGKNCDYNWDFEHWGRGTPVIVSSGGGGSGGGGSGGGGSLTQSPGTLSLSPGETAIISCRTSQYGSLAWYQQRPGQAPRLVIYSGSTRAAGIPDRFSGSRWGPDYNLTISNLESGDFGVYYCQQYEFFGQGTKVQVDKTHTQSVLTQPPSVSAAPGQKVTISCSGNTSNIGNNFVSWYQQRPGRAPQLLIYETDKRPSGIPDRFSASKSGTSGTLAITGLQTGDEADYYCATWAASLSSARVFGTGTQVIVLGQPKVNPTVTLFPPSSEELQANKATLVCLISDFYPGAVTVAWKADSSPVKAGVETTTPSKQSNNKYAASSYLSLTPEQWKSHRSYSCQVTHEGSTVEKTVAPTECS

How the values were obtained:
CAP256 wk34c80 = CAP256 wk34c80 (HIV-1); test: cell-based or functional assay
[1] = biological target: HIV-1 Env of strain WITO.33 (Env-pseudotyped virus) (HIV-1); test: cell-based or functional assay

| Binder | % neutralization, single point, Env-pseudotyped virus on TZM-bl (CAP256 wk34c80) | % neutralization, single point, Env-pseudotyped virus on TZM-bl [1] |
| --- | --- | --- |
| B1 | 100% | 0% |
| B2 | 20% | 3% |
| B3 | 100% | 86% |
| B4 | 99% | 0% |
| B5 | 23% | 10% |
| B6 | 100% | 0% |
| B7 | 41% | 38% |
| B8 | 67% | 0% |
| B9 | 100% | 18% |
| B10 | 98% | 0% |
| B11 | 77% | 0% |
| B12 | 98% | 0% |
